Experimental findings from publication PMC7029138, “Modulation of Symbiotic Compatibility by Rhizobial Zinc Starvation Machinery” are described below.

Series [1] concerns the target T1, Zur (His6-Zur) (Sinorhizobium fredii CCBAU45436, UniProt C3MDK7 1-131).
T1 sequence: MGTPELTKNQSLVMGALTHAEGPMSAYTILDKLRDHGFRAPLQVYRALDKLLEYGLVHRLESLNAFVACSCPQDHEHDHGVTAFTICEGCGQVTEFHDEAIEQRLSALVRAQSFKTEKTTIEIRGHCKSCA
Briefly: EMSA; 200 uM ZnSO4; 2.64 uM Zur; 10 mM Tris pH 7.5, 50 mM KCl, 1 mM DTT, 1 ug poly(dI-dC), 200 uM ZnSO4, with or without 50 uM TPEN, ~50 fmol probe in 15 ul, 25 C 20 min; 5% native PAGE in TB at 4 C. The following applies: protein: recombinant; tags: N-terminal His6 (pET-28a(+), BamHI/HindIII); chain copies: 2; label: 5' biotin on both strands; blunt. (Mobility shift assays separate free from complexed probe on a gel.)

For series [2], the target named is T1, Zur (His6-Zur). Kind of series: EMSA; 200 uM ZnSO4; 0.33-2.64 uM Zur, oligomeric shift above 1.32 uM; 10 mM Tris pH 7.5, 50 mM KCl, 1 mM DTT, 1 ug poly(dI-dC), 200 uM ZnSO4, with or without 50 uM TPEN, ~50 fmol probe in 15 ul, 25 C 20 min; 5% native PAGE in TB at 4 C. The conditions noted are these: protein: recombinant; tags: N-terminal His6 (pET-28a(+), BamHI/HindIII); chain copies: 2; label: 5' biotin on both strands; blunt.

B1: a42610 Zur box probe (dsDNA)
DNA 1: CAACATTCGCATGTTATGTTATAACATATCGCGTAATC
DNA 2: GATTACGCGATATGTTATAACATAACATGCGAATGTTG
Consider B1, for which the binding result in the series with Zur (His6-Zur) [1] is “binds”.

B2: d65890 Zur box probe (dsDNA)
DNA 1: TGATCGACGTGTGTAATGATATAACATATCGCATAAGT
DNA 2: ACTTATGCGATATGTTATATCATTACACACGTCGATCA
Consider B2, for which the binding result with Zur (His6-Zur) [1] is given as “binds”.

B3: znuA promoter Zur box probe (dsDNA)
DNA 1: GCGACTGCGTCGTGTAATGTTATTACATCAATTGCGTTATGCTATAACGTGTGCAATAGC
DNA 2: GCTATTGCACACGTTATAGCATAACGCAATTGATGTAATAACATTACACGACGCAGTCGC
Regarding B3, the binding result with Zur (His6-Zur) [2] is reported as “binds”.

B4: c06450 Zur box probe (dsDNA)
DNA 1: CAGCTCCTTATAATGTTATAACGTAACGGCACTTGATA
DNA 2: TATCAAGTGCCGTTACGTTATAACATTATAAGGAGCTG
With B4, in the series with Zur (His6-Zur) [1], the binding result is listed as “binds”.

B5: e68370 Zur box probe (dsDNA)
DNA 1: CAATCCCACGACGTAATGTTATAACATATCAGATAAGA
DNA 2: TCTTATCTGATATGTTATAACATTACGTCGTGGGATTG
As for B5, the binding result with Zur (His6-Zur) [1] was “binds”.
